Reference: article PMC9482650, “Quantitative fragmentomics allow affinity mapping of interactomes” (Nature Communications, 2022)

T1: HTRA4, P83105
T1 sequence (P83105 378-476, limits assumed, looked up): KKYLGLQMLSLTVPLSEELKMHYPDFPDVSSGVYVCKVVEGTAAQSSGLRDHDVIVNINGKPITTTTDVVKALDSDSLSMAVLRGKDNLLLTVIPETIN

T2: ARHGAP21, Q5T5U3
T2 sequence (Q5T5U3 45-169, limits assumed, looked up): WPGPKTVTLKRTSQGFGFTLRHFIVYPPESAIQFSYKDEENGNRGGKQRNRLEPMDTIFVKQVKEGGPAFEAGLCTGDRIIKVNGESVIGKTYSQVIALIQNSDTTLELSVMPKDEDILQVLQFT

T3: GRIP1_7, Q9Y3R0
T3 sequence (Q9Y3R0 999-1096, limits assumed, looked up): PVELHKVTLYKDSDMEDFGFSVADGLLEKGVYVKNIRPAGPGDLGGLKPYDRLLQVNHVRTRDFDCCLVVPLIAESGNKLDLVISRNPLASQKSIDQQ

T4: LNX2_2, Q8N448
T4 sequence (Q8N448 334-432, limits assumed, looked up): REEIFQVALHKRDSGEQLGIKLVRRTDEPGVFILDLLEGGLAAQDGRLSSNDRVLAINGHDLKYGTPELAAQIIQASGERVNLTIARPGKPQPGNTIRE

T5: LIN7A, O14910
T5 sequence (O14910 103-200, limits assumed, looked up): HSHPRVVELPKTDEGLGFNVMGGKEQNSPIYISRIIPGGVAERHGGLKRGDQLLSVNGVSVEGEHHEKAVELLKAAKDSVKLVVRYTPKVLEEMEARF

T6: TJP3_3, O95049
T6 sequence (O95049 375-456, limits assumed, looked up): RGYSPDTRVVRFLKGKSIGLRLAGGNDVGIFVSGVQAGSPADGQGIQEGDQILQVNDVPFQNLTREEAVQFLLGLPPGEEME

T7: DLG3_3, Q92796
T7 sequence (Q92796 374-475, limits assumed, looked up): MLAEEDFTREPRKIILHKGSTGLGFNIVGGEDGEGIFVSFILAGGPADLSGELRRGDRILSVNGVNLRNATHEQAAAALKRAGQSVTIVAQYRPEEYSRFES

T8: RAPGEF6, Q8TEU7
T8 sequence (Q8TEU7 525-625, limits assumed, looked up): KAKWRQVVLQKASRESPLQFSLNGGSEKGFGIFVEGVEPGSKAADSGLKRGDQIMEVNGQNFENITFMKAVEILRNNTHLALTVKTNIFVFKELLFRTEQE

T9: SNTB1, Q13884
T9 sequence (Q13884 107-205, limits assumed, looked up): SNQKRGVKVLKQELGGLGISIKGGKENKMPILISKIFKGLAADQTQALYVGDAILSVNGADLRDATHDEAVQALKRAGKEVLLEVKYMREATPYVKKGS

T10: APBA1_2, Q02410
T10 sequence (Q02410 742-832, limits assumed, looked up): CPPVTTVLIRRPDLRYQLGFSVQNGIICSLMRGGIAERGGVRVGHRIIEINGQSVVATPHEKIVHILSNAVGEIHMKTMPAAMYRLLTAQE

T11: MPP6, Q9NZW5
T11 sequence (Q9NZW5 125-219, limits assumed, looked up): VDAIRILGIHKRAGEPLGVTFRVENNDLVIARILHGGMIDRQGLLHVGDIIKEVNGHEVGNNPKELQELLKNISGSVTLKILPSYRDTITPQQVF

T12: APBA1_1, Q02410
T12 sequence (Q02410 651-752, limits assumed, looked up): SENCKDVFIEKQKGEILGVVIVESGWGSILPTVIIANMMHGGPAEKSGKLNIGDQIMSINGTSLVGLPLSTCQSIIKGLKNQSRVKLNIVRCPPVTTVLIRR

B1: NOS1AP, O75052 (peptide)
chain: GDGLDDEIAV
B2: MAP7D2, Q96T17 (peptide)
chain: GQETPLNTFC
B3: JAM3, Q9BX67 (peptide)
chain: DFRHKSSFVI

The binders below were run against T1, HTRA4, P83105 (assay: holdup assay). Conditions: plain residues with an end cap or a label only (N-terminal biotin on a linker: ado-ado).
Design: key: below the threshold = too weak to quantify, mostly under pKd 3.1 to 4

Row | pKd | Binder
1 | 3.9 | B1
2 | below the threshold | B2
3 | below the threshold | B3

These binders were tested against TJP1_3, Q07157 (assay: holdup assay). Conditions: plain residues with an end cap or a label only (N-terminal biotin on a linker: ado-ado).
Sequence of TJP1_3, Q07157 (Q07157 416-512): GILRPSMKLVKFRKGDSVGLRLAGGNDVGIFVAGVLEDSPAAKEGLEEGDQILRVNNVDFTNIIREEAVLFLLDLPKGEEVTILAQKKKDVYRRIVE
Design: key: below the threshold = too weak to quantify, mostly under pKd 3.1 to 4

Row | pKd | Binder
4 | below the threshold | B1
5 | below the threshold | B2
6 | below the threshold | B3

The binders below were run against T2, ARHGAP21, Q5T5U3 (assay: holdup assay). Conditions: plain residues with an end cap or a label only (N-terminal biotin on a linker: ado-ado).
Design: key: below the threshold = too weak to quantify, mostly under pKd 3.1 to 4

Row | pKd | Binder
7 | 4.51 | B1
8 | below the threshold | B2
9 | below the threshold | B3

What follows are binders tested against NHERF2_2, Q15599 (assay: holdup assay). Conditions: plain residues with an end cap or a label only (N-terminal biotin on a linker: ado-ado).
Sequence of NHERF2_2, Q15599 (Q15599 142-238): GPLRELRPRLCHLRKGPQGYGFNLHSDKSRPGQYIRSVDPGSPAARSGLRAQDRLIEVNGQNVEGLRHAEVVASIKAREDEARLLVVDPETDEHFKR
Design: key: below the threshold = too weak to quantify, mostly under pKd 3.1 to 4

Row | pKd | Binder
10 | below the threshold | B1
11 | 3.94 | B2
12 | below the threshold | B3

The binders below were run against T3, GRIP1_7, Q9Y3R0 (assay: holdup assay). Conditions: plain residues with an end cap or a label only (N-terminal biotin on a linker: ado-ado).
Design: key: below the threshold = too weak to quantify, mostly under pKd 3.1 to 4

Row | pKd | Binder
13 | below the threshold | B1
14 | below the threshold | B2
15 | below the threshold | B3

What follows are binders tested against NHERF4_1, Q86UT5-2 (assay: holdup assay). Conditions: plain residues with an end cap or a label only (N-terminal biotin on a linker: ado-ado).
Sequence of NHERF4_1, Q86UT5-2 (Q86UT5 other isoform, or with tags, fused parts or gaps): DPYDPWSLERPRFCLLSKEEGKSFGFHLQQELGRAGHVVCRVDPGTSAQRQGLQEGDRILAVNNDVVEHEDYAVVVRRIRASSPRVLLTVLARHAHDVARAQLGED
Design: key: below the threshold = too weak to quantify, mostly under pKd 3.1 to 4

Row | pKd | Binder
16 | below the threshold | B1
17 | 3.6 | B2
18 | below the threshold | B3

These binders were tested against NHERF4_4, Q86UT5 (assay: holdup assay). Conditions: plain residues with an end cap or a label only (N-terminal biotin on a linker: ado-ado).
Sequence of NHERF4_4, Q86UT5 (Q86UT5 464-550): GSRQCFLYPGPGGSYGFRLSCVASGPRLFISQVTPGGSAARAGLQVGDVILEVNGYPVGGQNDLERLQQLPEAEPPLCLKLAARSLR
Design: key: below the threshold = too weak to quantify, mostly under pKd 3.1 to 4

Row | pKd | Binder
19 | below the threshold | B1
20 | below the threshold | B2
21 | below the threshold | B3

What follows are binders tested against T4, LNX2_2, Q8N448 (assay: holdup assay). Conditions: plain residues with an end cap or a label only (N-terminal biotin on a linker: ado-ado).
Design: key: below the threshold = too weak to quantify, mostly under pKd 3.1 to 4

Row | pKd | Binder
22 | 4.37 | B1
23 | below the threshold | B2
24 | 4.15 | B3

What follows are binders tested against PICK1, Q9NRD5 (assay: holdup assay). Conditions: plain residues with an end cap or a label only (N-terminal biotin on a linker: ado-ado).
Sequence of PICK1, Q9NRD5 (Q9NRD5 17-115): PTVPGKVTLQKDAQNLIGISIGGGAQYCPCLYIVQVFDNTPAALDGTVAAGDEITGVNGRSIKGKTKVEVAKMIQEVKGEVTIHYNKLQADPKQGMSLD
Design: key: below the threshold = too weak to quantify, mostly under pKd 3.1 to 4

Row | pKd | Binder
25 | 4.38 | B1
26 | below the threshold | B2
27 | below the threshold | B3

What follows are binders tested against T5, LIN7A, O14910 (assay: holdup assay). Conditions: plain residues with an end cap or a label only (N-terminal biotin on a linker: ado-ado).
Design: key: below the threshold = too weak to quantify, mostly under pKd 3.1 to 4

Row | pKd | Binder
28 | below the threshold | B1
29 | below the threshold | B2
30 | below the threshold | B3

These binders were tested against DLG4_1, P78352 (assay: holdup assay). Conditions: plain residues with an end cap or a label only (N-terminal biotin on a linker: ado-ado).
Sequence of DLG4_1, P78352 (P78352 62-152): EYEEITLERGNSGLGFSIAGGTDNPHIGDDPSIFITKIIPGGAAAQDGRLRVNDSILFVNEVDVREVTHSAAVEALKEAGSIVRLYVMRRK
Design: key: below the threshold = too weak to quantify, mostly under pKd 3.1 to 4

Row | pKd | Binder
31 | below the threshold | B1
32 | below the threshold | B2
33 | below the threshold | B3

The binders below were run against Inadl_2, Q8NI35 (assay: holdup assay). Conditions: plain residues with an end cap or a label only (N-terminal biotin on a linker: ado-ado).
Sequence of Inadl_2, Q8NI35 (Q8NI35 238-335): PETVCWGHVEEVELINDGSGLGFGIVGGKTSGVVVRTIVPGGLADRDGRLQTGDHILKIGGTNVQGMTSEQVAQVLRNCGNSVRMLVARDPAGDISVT
Design: key: below the threshold = too weak to quantify, mostly under pKd 3.1 to 4

Row | pKd | Binder
34 | 3.99 | B1
35 | below the threshold | B2
36 | below the threshold | B3

The binders below were run against NOS1, P29475 (assay: holdup assay). Conditions: plain residues with an end cap or a label only (N-terminal biotin on a linker: ado-ado).
Sequence of NOS1, P29475 (P29475 9-101): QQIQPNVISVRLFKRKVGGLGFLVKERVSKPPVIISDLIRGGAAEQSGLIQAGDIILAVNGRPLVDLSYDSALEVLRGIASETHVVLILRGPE
Design: key: below the threshold = too weak to quantify, mostly under pKd 3.1 to 4

Row | pKd | Binder
37 | 3.8 | B1
38 | below the threshold | B2
39 | below the threshold | B3

These binders were tested against MAGI1_1, Q96QZ7 (assay: holdup assay). Conditions: plain residues with an end cap or a label only (N-terminal biotin on a linker: ado-ado).
Sequence of MAGI1_1, Q96QZ7 (Q96QZ7 1-106): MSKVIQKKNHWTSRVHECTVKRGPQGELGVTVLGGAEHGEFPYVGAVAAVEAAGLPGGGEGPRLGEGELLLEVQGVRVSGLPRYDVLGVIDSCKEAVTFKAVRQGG
Design: key: below the threshold = too weak to quantify, mostly under pKd 3.1 to 4

Row | pKd | Binder
40 | below the threshold | B1
41 | below the threshold | B2
42 | below the threshold | B3

These binders were tested against T6, TJP3_3, O95049 (assay: holdup assay). Conditions: plain residues with an end cap or a label only (N-terminal biotin on a linker: ado-ado).
Design: key: below the threshold = too weak to quantify, mostly under pKd 3.1 to 4

Row | pKd | Binder
43 | below the threshold | B1
44 | below the threshold | B2
45 | below the threshold | B3

Each binder was assayed against T7, DLG3_3, Q92796 (assay: holdup assay). Conditions: plain residues with an end cap or a label only (N-terminal biotin on a linker: ado-ado).
Design: key: below the threshold = too weak to quantify, mostly under pKd 3.1 to 4

Row | pKd | Binder
46 | below the threshold | B1
47 | below the threshold | B2
48 | below the threshold | B3

What follows are binders tested against T8, RAPGEF6, Q8TEU7 (assay: holdup assay). Conditions: plain residues with an end cap or a label only (N-terminal biotin on a linker: ado-ado).
Design: key: below the threshold = too weak to quantify, mostly under pKd 3.1 to 4

Row | pKd | Binder
49 | below the threshold | B1
50 | below the threshold | B2
51 | below the threshold | B3

These binders were tested against GRID2IP_1, A4D2P6 (assay: holdup assay). Conditions: plain residues with an end cap or a label only (N-terminal biotin on a linker: ado-ado).
Sequence of GRID2IP_1, A4D2P6 (A4D2P6 1-87): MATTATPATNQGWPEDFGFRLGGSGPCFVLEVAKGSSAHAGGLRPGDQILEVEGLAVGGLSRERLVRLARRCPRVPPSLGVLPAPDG
Design: key: below the threshold = too weak to quantify, mostly under pKd 3.1 to 4

Row | pKd | Binder
52 | below the threshold | B1
53 | below the threshold | B2
54 | below the threshold | B3

The binders below were run against Inadl_9, Q8NI35 (assay: holdup assay). Conditions: plain residues with an end cap or a label only (N-terminal biotin on a linker: ado-ado).
Sequence of Inadl_9, Q8NI35 (Q8NI35 1530-1615): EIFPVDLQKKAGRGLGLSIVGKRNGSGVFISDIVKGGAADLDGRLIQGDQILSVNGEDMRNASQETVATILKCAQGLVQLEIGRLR
Design: key: below the threshold = too weak to quantify, mostly under pKd 3.1 to 4

Row | pKd | Binder
55 | 3.69 | B1
56 | below the threshold | B2
57 | below the threshold | B3

These binders were tested against T9, SNTB1, Q13884 (assay: holdup assay). Conditions: plain residues with an end cap or a label only (N-terminal biotin on a linker: ado-ado).
Design: key: below the threshold = too weak to quantify, mostly under pKd 3.1 to 4

Row | pKd | Binder
58 | below the threshold | B1
59 | below the threshold | B2
60 | below the threshold | B3

These binders were tested against T10, APBA1_2, Q02410 (assay: holdup assay). Conditions: plain residues with an end cap or a label only (N-terminal biotin on a linker: ado-ado).
Design: key: below the threshold = too weak to quantify, mostly under pKd 3.1 to 4

Row | pKd | Binder
61 | below the threshold | B1
62 | below the threshold | B2
63 | below the threshold | B3

What follows are binders tested against GRASP, Q7Z6J2 (assay: holdup assay). Conditions: plain residues with an end cap or a label only (N-terminal biotin on a linker: ado-ado).
Sequence of GRASP, Q7Z6J2 (Q7Z6J2 96-193): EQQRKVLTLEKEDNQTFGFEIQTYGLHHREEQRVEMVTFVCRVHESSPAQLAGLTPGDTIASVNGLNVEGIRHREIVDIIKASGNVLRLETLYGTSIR
Design: key: below the threshold = too weak to quantify, mostly under pKd 3.1 to 4

Row | pKd | Binder
64 | below the threshold | B1
65 | below the threshold | B2
66 | below the threshold | B3

Each binder was assayed against TJP2_1, Q9UDY2 (assay: holdup assay). Conditions: plain residues with an end cap or a label only (N-terminal biotin on a linker: ado-ado).
Sequence of TJP2_1, Q9UDY2 (Q9UDY2 24-128): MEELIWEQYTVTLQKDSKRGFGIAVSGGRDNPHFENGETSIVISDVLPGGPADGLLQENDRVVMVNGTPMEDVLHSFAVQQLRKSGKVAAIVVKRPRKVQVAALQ
Design: key: below the threshold = too weak to quantify, mostly under pKd 3.1 to 4

Row | pKd | Binder
67 | below the threshold | B1
68 | below the threshold | B2
69 | below the threshold | B3

What follows are binders tested against T11, MPP6, Q9NZW5 (assay: holdup assay). Conditions: plain residues with an end cap or a label only (N-terminal biotin on a linker: ado-ado).
Design: key: below the threshold = too weak to quantify, mostly under pKd 3.1 to 4

Row | pKd | Binder
70 | below the threshold | B1
71 | 3.62 | B2
72 | 3.62 | B3

What follows are binders tested against T12, APBA1_1, Q02410 (assay: holdup assay). Conditions: plain residues with an end cap or a label only (N-terminal biotin on a linker: ado-ado).
Design: key: below the threshold = too weak to quantify, mostly under pKd 3.1 to 4

Row | pKd | Binder
73 | below the threshold | B1
74 | below the threshold | B2
75 | below the threshold | B3
